Data taken from the Human Domainome abundance scans (Beltran et al. 2025).

B1: Gamma-crystallin C, residues 91 to 170; numbered along this chain, P07315 (parent)
chain: RLYEREDHKGLMMELSEDCPSIQDRFHLSEIRSLHVLEGCWVLYELPNYRGRQYLLRPQEYRRCQDWGAMDAKAGSLRRV

Variants of: B1
Assay: abundance fitness (aPCA) (normalised: wild type 0, dead -1); higher = more abundant; growth selection in yeast, the domain comes from the species named
Conditions: Homo sapiens

Abundance fitness of substitutions, site by site:
R57: D -0.174 | I -0.566 | L -0.24 | C -0.215 | T 0.052 | A 0.003 | M -0.297 | H -0.034 | N 0.021 | V -0.14 | K -0.148 | S 0.018 | F -0.067 | G -0.134 | Q -0.045 | E -0.064 | W -0.179
Q53: L -0.78 | W -0.225 | V -0.747 | G -0.103 | E 0.087 | F -0.425 | A -0.122 | T -0.197 | K -0.19 | C -0.219 | Y -0.159 | H -0.386 | R -0.092 | D -0.241 | N 0.005 | M -0.345 | P -0.144 | S 0.074
L43: I -0.251 | N -0.673 | G -0.721 | T -0.674 | Y -0.224 | P -0.992 | H -0.757 | R -1.01 | Q -0.606 | S -0.865 | F -0.645 | V -0.81 | A -0.931 | E -0.804 | M -0.099 | C -0.701
Q59: E -0.354 | A 0.041 | F -0.377 | C -0.052 | S -0.116 | M -0.038 | G 0.02 | N -0.364 | V -0.266 | P -0.994 | L -0.438 | D -0.217 | K 0.135 | R -0.047 | H -0.245 | I -0.145 | W -0.486
R52: D -0.338 | H -0.324 | S -0.234 | I -0.31 | A 0.009 | G -0.402 | E -0.28 | P -0.093 | C -0.587 | V -0.137 | W -0.523 | N -0.031 | T -0.058 | Q -0.128 | L -0.219
Y54: L -0.727 | I -0.395 | Q -0.783 | M -0.692 | T -0.717 | R -0.897 | G -0.968 | K -0.76 | W -0.36 | P -1 | E -1.19 | A -0.891 | S -0.614 | F -0.118
Y61: S -0.936 | I -0.808 | H -0.919 | T -0.529 | L -0.922 | C -0.934 | G -0.925 | A -1.04 | R -1.06 | M -0.964 | V -1.05 | P -1.07
R50: L -0.063 | V -0.085 | A -0.066 | C -0.021 | W -0.664 | G 0.04 | F -0.375 | N -0.242 | S -0.007 | P -0.916 | T -0.002 | E -0.068 | M -0.108 | Q -0.012 | Y -0.606 | K -0.029
C40: V 0.002 | L -0.042 | G -0.186 | D 0.058 | P -0.446 | I -0.222 | A -0.025 | T 0.07 | E 0.052 | N 0.119 | R -0.138 | Q 0.055 | H -0.09 | S 0.041 | K -0.202 | W -0.103 | Y -0.284
G51: R -0.589 | H -0.752 | S -0.962 | L -0.807 | C -0.695 | W -0.268 | P -1.03 | V -0.93 | A -0.833 | T -0.49
G39: L -0.89 | W -0.94 | T -0.892 | H -0.151 | D -0.298 | M -0.93 | P -0.798 | Q -0.853 | V -0.924 | E -0.186 | N -0.65 | Y -0.566 | F -0.759
L56: H -0.953 | K -0.806 | Y -0.926 | M -0.553 | I -0.515 | T -0.636 | A -0.939 | E -0.93 | G -0.928 | R -0.836 | S -0.957 | P -0.931 | W -0.988
Y49: K -0.918 | N -0.198 | P -0.942 | M -0.981 | E -0.734 | L -0.906 | V -0.969 | H -0.94 | A -1.04 | Q -0.85 | G -1.11 | R -0.9 | S -0.891 | C -0.914 | W -0.551
E45: R -0.437 | Q -0.211 | L -0.875 | D -0.265 | M -0.792 | G -0.492 | T -0.118 | I -0.762 | A -0.191 | P -0.832 | K -0.465 | S -0.149 | W -0.644 | H -0.582 | N -0.933
R62: Q -0.1 | Y -0.252 | F -0.086 | M 0.195 | T -0.262 | S -0.069 | N -0.64 | A 0.07 | V -0.365 | W -0.073 | G -0.237 | E -0.6 | P -0.196 | D -0.619
N48: G -0.07 | H -0.022 | P -0.65 | F 0.077 | V -0.929 | R -0.234 | T -0.823 | Y -0.006 | W -0.151 | S -0.238 | Q -0.017 | C -0.339 | K -0.215 | D -0.007 | A -0.348 | E -0.314
P47: V -0.591 | W -0.832 | T -0.449 | L -0.601 | Q -0.348 | A -0.07 | R -0.502 | Y -0.891 | D -0.178 | C -0.109
R63: E -0.234 | P -1.02 | M -0.32 | C -0.15 | A -0.056 | D -0.58 | F -0.574 | Q -0.089 | L -0.654 | H -0.167
L55: T 0.1 | I 0.075 | E -0.074 | V -0.087 | A -0.09 | D -0.441 | M -0.01 | W -0.098 | K -0.161 | C -0.241 | S -0.08 | G -0.082 | F -0.078 | Q -0.067 | H -0.053 | Y 0.161
L46: C -0.075 | E 0.04 | Y -0.162 | V -0.98 | M -0.188 | Q -0.262 | W -0.237 | D -0.43 | G -0.27 | A 0.023 | F 0.047 | K -0.051 | N -0.767 | T -0.863 | R -0.146
Y44: H -0.306 | E -0.957 | R -0.478 | S -0.568 | N -0.325 | L -0.648 | T -1.04 | G -0.608 | Q -0.567 | A -0.671 | F -0.069 | V -0.784 | P -0.905 | W -0.599
P58: A -0.167 | H -0.587 | K -0.15 | D -0.167 | S -0.202 | F -0.882 | C -0.334 | V -0.378 | G -0.744 | I -0.623 | T -0.105 | L -0.98 | N -0.268 | R -0.453
E60: T -0.081 | C -0.172 | A 0.045 | R 0.006 | M -0.162 | S -0.018 | D -0.235 | L -0.001 | K -0.197 | I -0.219 | W -0.206 | H -0.174 | Q 0.034 | Y -0.069 | P -0.142 | V -0.117 | F -0.468
